These results are taken from PMC7862291 (2021).

To fix the notation:
B1: wild type human KMO (Hs-KMO), NanoBRET constructs [human] / itself (parent complex)
chain: MDSSVIQRKKVAVIGGGLVGSLQACFLAKRNFQIDVYEAREDTRVATFTRGRSINLALSHRGRQALKAVGLEDQIVSQGIPMRARMIHSLSGKKSAIPYGTKSQYILSVSRENLNKDLLTAAEKYPNVKMHFNHRLLKCNPEEGMITVLGSDKVPKDVTCDLIVGCDGAYSTVRSHLMKKPRFDYSQQYIPHGYMELTIPPKNGDYAMEPNYLHIWPRNTFMMIALPNMNKSFTCTLFMPFEEFEKLLTSNDVVDFFQKYFPDAIPLIGEKLLVQDFFLLPAQPMISVKCSSFHFKSHCVLLGDAAHAIVPFFGQGMNAGFEDCLVFDELMDKFSNDLSLCLPVFSRLRIPDDHAISDLSMYNYIEMRAHVNSSWFIFQKNMERFLHAIMPSTFIPLYTMVTFSRIRYHEAVQRWHWQKKVINKGLFFLGSLIAISSTYLLIHYMSPRSFLRLRRPWNWIAHFRNTTCFPAKAVDSLEQISNLISR

In this assay the parent is B1. Nature of the assay: NanoBRET; HEK293T cells; + ligand (TMR ligand); n = 6; read off a plot. In general terms: Bioluminescence resonance energy transfer reports proximity on the nanometre scale.
As to chain 1 D184A, chain 1 Y185P, chain 1 Q187A, the response is roughly 78 mBU.
